# Reference: patent US20250084173A1 (4B TECHNOLOGIES SUZHOU, published 2025)
# Tests used:
# [1] = target: T1, recombinant human TrkA ECD protein (human, UniProt P04629 33-423); assay: ELISA on recombinant TrkA ECD proteins (FIG. 1b)
# T1 construct: extracellular domain; also called hTrkA-ECD-hFc; hTrkA; not shown: C-terminal human Fc tag (hFc)
# [2] = target: T2, recombinant mouse TrkA ECD protein (mouse, UniProt Q3UFB7 34-420); assay: ELISA on recombinant TrkA ECD proteins (FIG. 1b)
# T2 construct: extracellular domain; also called mTrkA-ECD-hFc; murine TrkA; not shown: C-terminal human Fc tag (hFc)
# T2 sequence (Q3UFB7 34-420): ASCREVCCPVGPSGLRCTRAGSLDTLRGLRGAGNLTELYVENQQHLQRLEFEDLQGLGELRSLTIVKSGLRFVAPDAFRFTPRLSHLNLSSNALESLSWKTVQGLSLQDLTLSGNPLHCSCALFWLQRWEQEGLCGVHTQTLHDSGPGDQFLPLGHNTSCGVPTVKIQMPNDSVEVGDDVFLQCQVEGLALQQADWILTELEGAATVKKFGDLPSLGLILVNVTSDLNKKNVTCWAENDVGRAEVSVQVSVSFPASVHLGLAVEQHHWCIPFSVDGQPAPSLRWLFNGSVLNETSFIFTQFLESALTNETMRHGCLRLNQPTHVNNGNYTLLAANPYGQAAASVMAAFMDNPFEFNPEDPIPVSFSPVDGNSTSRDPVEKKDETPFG
# T1 sequence (P04629 33-423): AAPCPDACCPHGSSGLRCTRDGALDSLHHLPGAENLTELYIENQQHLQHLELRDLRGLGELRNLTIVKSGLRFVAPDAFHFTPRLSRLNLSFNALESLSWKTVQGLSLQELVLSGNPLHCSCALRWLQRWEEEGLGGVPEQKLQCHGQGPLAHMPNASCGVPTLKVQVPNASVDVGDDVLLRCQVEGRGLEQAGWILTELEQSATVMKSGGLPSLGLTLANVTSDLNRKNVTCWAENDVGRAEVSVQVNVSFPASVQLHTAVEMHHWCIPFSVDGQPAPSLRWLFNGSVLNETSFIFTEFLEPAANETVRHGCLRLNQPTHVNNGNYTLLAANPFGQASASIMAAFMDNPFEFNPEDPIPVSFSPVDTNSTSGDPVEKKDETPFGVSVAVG
binder,measurement,setting,value
"27A6 (antibody, mouse IgG1, V domains shown, also called TrkA antibody; TrkA antibody of the present application) VH: QVQLQQSGAELMEPGASVKISCKATGYTFSRYWIEWVQQRPGHGLEWIGEILPGSGTTNYNENFRGKATFTADTSSNTVYMQLISLTSEDSAVYYCARSYYGDFDAYWGQGTLVTVSA VL: QAVVTQESALTTSPGETVTLTCRSSIGAVTTSNHANWVQEKPDHLFTGLIGGTNNRAPGVPARFSGSLIGDKAVLTITGAQTEDEAIYFCALWYSNHWVFGGGTKLTVLG",binding result,[1],binds
same,binding result,[2],binds
